Measured values taken from article PMC11116813.

How the values were obtained:
[1] = biological target: Chp2 (Schizosaccharomyces pombe) (UniProt O42934); details: cited from earlier work
[2] = biological target: full-length human HP1α WT (hHP1α), recombinant (human) (UniProt P45973); test: ITC; iTC200, full-length HP1α dimer in the cell (60 μM for hINCENP, 80 μM for hSgo1), 600 μM hINCENP or 800 μM hSgo1 fragment in the syringe, 25°C, 20 mM NaPO4 pH 7.0, 150 mM NaCl, 1 mM DTT (Fig. 6A, Fig. S5A); one-site model
full-length human HP1α WT (hHP1α), recombinant (human), sequence (P45973 whole entry, the tested form may be a part): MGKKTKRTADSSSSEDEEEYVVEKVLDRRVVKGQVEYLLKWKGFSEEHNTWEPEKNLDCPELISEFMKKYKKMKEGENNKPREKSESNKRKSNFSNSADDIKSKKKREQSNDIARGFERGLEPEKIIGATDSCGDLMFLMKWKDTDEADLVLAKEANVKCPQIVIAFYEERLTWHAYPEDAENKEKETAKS

Chp2 (Schizosaccharomyces pombe), sequence (O42934 whole entry, the tested form may be a part): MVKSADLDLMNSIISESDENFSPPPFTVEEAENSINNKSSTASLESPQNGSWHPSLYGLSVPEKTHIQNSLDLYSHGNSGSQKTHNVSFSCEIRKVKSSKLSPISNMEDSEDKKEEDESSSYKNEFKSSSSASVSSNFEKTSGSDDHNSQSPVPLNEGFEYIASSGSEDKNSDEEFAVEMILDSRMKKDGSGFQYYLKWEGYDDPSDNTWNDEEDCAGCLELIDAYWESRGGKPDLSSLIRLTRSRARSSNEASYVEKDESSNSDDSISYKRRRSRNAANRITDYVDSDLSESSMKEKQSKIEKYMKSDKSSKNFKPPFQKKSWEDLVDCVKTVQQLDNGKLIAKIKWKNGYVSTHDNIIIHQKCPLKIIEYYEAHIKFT
Mit1, sequence (Q9P793 whole entry): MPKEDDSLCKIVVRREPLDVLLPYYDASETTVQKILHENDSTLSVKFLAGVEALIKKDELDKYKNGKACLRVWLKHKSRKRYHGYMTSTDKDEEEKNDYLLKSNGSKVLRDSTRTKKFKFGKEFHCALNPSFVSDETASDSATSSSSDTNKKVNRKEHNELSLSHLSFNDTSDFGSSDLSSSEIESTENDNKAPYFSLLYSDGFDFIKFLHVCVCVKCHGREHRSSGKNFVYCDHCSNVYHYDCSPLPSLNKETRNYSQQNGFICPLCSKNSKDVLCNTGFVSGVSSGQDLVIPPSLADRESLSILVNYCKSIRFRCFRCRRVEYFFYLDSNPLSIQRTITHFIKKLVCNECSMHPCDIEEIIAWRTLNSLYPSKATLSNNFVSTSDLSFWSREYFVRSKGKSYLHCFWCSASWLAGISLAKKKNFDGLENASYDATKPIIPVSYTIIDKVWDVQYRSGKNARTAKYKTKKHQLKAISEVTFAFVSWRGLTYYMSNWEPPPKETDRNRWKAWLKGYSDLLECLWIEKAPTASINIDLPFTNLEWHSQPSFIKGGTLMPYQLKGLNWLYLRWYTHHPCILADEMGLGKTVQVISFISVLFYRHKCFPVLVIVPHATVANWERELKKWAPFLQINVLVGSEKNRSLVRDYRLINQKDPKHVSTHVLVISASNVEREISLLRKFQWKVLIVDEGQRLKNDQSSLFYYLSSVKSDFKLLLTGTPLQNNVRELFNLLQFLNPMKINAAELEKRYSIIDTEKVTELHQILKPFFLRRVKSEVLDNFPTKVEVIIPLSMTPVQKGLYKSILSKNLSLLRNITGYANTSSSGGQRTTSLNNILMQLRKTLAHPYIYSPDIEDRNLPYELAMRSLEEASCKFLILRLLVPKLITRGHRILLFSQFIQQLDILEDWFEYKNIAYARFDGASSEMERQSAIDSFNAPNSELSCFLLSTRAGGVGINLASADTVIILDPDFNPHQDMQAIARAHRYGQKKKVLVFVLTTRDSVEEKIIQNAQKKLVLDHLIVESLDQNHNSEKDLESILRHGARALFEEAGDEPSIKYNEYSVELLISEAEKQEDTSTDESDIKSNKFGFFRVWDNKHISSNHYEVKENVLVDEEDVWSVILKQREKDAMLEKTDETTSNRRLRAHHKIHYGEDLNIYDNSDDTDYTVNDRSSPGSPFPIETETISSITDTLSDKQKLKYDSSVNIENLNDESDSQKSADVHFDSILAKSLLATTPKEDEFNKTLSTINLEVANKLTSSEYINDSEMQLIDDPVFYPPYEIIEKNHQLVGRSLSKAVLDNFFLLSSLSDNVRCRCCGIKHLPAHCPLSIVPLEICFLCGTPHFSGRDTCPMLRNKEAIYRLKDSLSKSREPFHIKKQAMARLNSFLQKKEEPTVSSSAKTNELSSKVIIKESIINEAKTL

| Kd [2] | Substance | Kd [1] |
| --- | --- | --- |
|  | Mit1 (from UniProt Q9P793) | 0.0026 µM |
| 0.06 µM | human INCENP fragment (121-210) WT used in Fig. 6A (from UniProt Q9NQS7 121-210) (domain or fragment) |  |
| 0.81 µM | human INCENP fragment (121-210) E180A (from UniProt Q9NQS7 121-210) (domain or fragment) |  |
